For this test, the target named is HLA.A2 on T2 mutant cells. The test can be described thus: T2 cell HLA.A2 upregulation assay, flow cytometry with MA2.1.

B1: …, positive control peptide (peptide)
peptide: FLPSDYFPSV
modifications: not checked
In turn, B1 returned a % Change in mean channel intensity of 428%.

For the origin of these results see US6600012.
